Series [1] concerns the target T1, BCL-XLΔC (Homo sapiens, UniProt Q07817). Put plainly: fluorescence polarization.
Target sequence in this assay (Q07817 1-212, stated change not applied): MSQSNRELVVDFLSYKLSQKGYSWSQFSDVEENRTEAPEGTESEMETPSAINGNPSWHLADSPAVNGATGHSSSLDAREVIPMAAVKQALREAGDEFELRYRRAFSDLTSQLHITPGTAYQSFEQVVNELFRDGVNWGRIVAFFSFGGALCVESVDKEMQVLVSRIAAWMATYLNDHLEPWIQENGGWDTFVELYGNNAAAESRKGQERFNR
Series [2] has as its target T1, BCL-XLΔC. Briefly: IC50 (nM). Details: BCL-XL ΔC was expressed as a glutathione-S-transferase (GST) fusion protein; GST (N, cleaved yes); made in house; host or cells: Escherichia coli BL21 (DE3), pGEX2T vector. From the text: Table printed on a drawing sheet, FIG. 4B
Head of the field: IC50 (nM)
First copying reader's note: The table is the legend of a binding plot (mP vs [BCL-XL ΔC], M); plot marker symbols before each sequence are left out, and some mutated residues are printed inside a box.

Series [3] concerns BCL-XL-reconstituted p185^+Arf^−/−Mcl-1^del B-ALL cells. Put plainly: LDH release assay (membrane lysis) in B-ALL cells. The following applies: 10 μM peptide, 30 min, serum-free.
Description: Data are normalized based on the response to treatment with 1% Triton X-100 (100% release) and media alone (0% LDH release). Error bars are mean±s.d. for experiments performed in technical duplicate and repeated twice.
B-ALL and Jurkat T cells were plated in 96-well format (2×10^4 cells per well) in serum-free RPMI. […] The plate was centrifuged at 1500 rpm for 5 min at 4° C., and 80 μL of cell culture media was transferred to a clear plate (Corning), incubated with 80 μL of LDH reagent (Roche) for 15 min while shaking, and absorbance measured at 490 nm on a microplate reader (SpectraMax M5 Microplate Reader, Molecular Devices).
In order to identify compounds whose cytotoxicity correlates with the capacity for cellular uptake and intracellular target engagement, it is important to rule out nonspecific cytotoxicity due to potential plasma membrane lysis.
Series [4] is described as follows: Percent α-helicity by circular dichroism. Type of series: physicochemical. Conditions: 222 nm. On the procedure: FIG. 19 is a table showing the sequence composition and biophysical parameters of a BIM BH3 staple scanning library. Hydrophobicity was calculated using techniques generally known in the art^39, with “X” assigned the hydrophobicity value of Leu. Retention time in minutes reflects the peptide elution time from an HPLC C18 column (Agilent, 1200) run for 20 minutes using a 5-95% water: acetonitrile gradient (10 mM ammonium carbonate). Percent α-helicity of stapled peptides (50 μM, 10% acetonitrile in water) was derived from circular dichroism spectra using the mdeg value at 222 nm, as described^34. Net charge was calculated by summing the positive and negative charges of Arg and Asp/Glu, respectively. The isoelectric point (pI) calculation employed the EMBOSS values for pKa.
The alpha-helicity of a peptide of interest can be determined by any method known in the art. In some cases, circular dichroism or nuclear magnetic resonance spectroscopy (NMR) may be employed. Peptides are dissolved in an aqueous solution (e.g., 5 mM potassium phosphate solution at pH 7, or distilled H2O, to concentrations of 25-50 μM). […] The α-helical content of each peptide is calculated by dividing the mean residue ellipticity by the reported value for a model helical decapeptide (Yang et al., Methods Enzymol. 130:208 (1986)). […]
Background: Circular dichroism is widely used to follow secondary structure.

For series [5], the system named is SAOS-2 cells. Put plainly: Epifluorescence (IXM) microscopy cellular penetrance of ATSP-7041. Type of series: cell-based. The source says:
Error bars represent mean±s.d.
Images were acquired by IXM.

Series [6] concerns cells. The following applies: 20 μM peptide.
Excerpt: Data are normalized based on the response to treatment with 1% Triton X-100 (100% release) and media alone (0% LDH release). Error bars are mean±s.d.
Series [7] relates to mouse embryonic fibroblasts (MEFs). Put plainly: ImageXpress microscopy cellular uptake of FITC-peptides (TIFI). Conditions: MEFs 2×10^4 cells/well, 500 nM FITC-peptide, 4 h, 0% FBS, per cell basis. Type of series: cell-based. The source says: The cellular penetrance of a peptide of interest can be assessed by any method known in the art. For example, ImageXpress microscopy analysis may be employed as described in Example 1. The total internalized FITC intensity (TIFI) can be used as a way to determine cellular uptake of a hydrocarbon-stapled and/or stitched peptide by a cell (e.g., any cell described herein). Methods of determining TIFI are described in detail in Examples 2 and 3 of the instant specification. Briefly, a custom module (CM) was created to develop a rigorous quantitation platform for measuring cellular uptake of hydrocarbon-stapled and/or stitched peptides derivatized with a FITC fluorophore at the N-terminus. The CM was developed based on (1) defining the parameters of cellular uptake (e.g., excluding extracellular aggregates and auto-fluorescent debris), (2) defining a pixel boundary to avoid quantitation of extracellular, membrane-adherent peptides, (3) excluding out-of-focus fluorescence from the FITC signal outliers. Once the CM parameters are set, images can be acquired at 20× and 40× magnification for per cell basis fluorescence, and four distinct central locations of the cellular field are visualized. Next signal-to-noise ratios are maximized to ensure optimal sensitivity and specificity of internal FITC-peptide signal. […]

The values that follow come from patent US20190048038A1, “METHOD FOR GENERATING CELL-PENETRATING STAPLED PEPTIDES THAT LACK NONSPECIFIC MEMBRANE-LYTIC PROPERTIES FOR THERAPEUTIC TARGETING” (Dana-Farber Cancer Institute, Inc., priority 2016, published 2019).

Positions of bridges follow the written chain, without caps; N, C: chain ends. Non-standard residues stand in square brackets, D forms with d. Residues, ends and D or L forms follow the SMILES beside them. No end group written: not given here. *: point of attachment. FITC = O=C1OC2(c3ccc(O)cc3Oc3cc(O)ccc32)c2ccc(NC(=S)*)cc21; R8 = C=CCCCCCC[C@@](C)(N)C(=O)O; Cba = N[C@@H](CC1CCC1)C(=O)O; S5 = C=CCCC[C@](C)(N)C(=O)O; βAla = NCCC(=O)O

A word on the IC50: it is the concentration at which inhibition is half-maximal. Higher therefore signals lower potency. Molecule BIM SAHBA1 displayed an IC50 in series [1] of 13.8 nM.
Take `CC[C@H](C)[C@H](NC(=O)CCNC(=S)Nc1ccc2c(c1)C(=O)OC21c2ccc(O)cc2Oc2cc(O)ccc21)C(=O)N[C@@H](Cc1c[nH]c2ccccc12)C(=O)N[C@H](C(=O)N[C@@H](C)C(=O)N[C@@H](CCC(N)=O)C(=O)N[C@@H](CCC(=O)O)C(=O)N[C@@H](CC(C)C)C(=O)N[C@@H](CCCNC(=N)N)C(=O)N[C@@]1(C)CCCC=CCCC[C@@](C)(C(=O)N[C@@H](Cc2ccccc2)C(=O)N[C@@H](CC(N)=O)C(=O)N[C@@H](C)C(=O)N[C@@H](Cc2ccc(O)cc2)C(=O)N[C@@H](Cc2ccc(O)cc2)C(=O)N[C@@H](C)C(=O)N[C@@H](CCCNC(=N)N)C(=O)N[C@@H](CCCNC(=N)N)C(N)=O)NC(=O)[C@H](CC(C)C)NC(=O)CNC(=O)[C@H]([C@@H](C)CC)NC1=O)[C@@H](C)CC` [IWIAQELRXIGLXFNAYYARR] ({FITC-βAla}-IWIAQELR[S5]IGL[S5]FNAYYARR-NH2; staple 9-13): the IC50 in series [2] was > 1000 nM.
Take `CC[C@H](C)[C@H](NC(=O)CCNC(=S)Nc1ccc2c(c1)C(=O)OC21c2ccc(O)cc2Oc2cc(O)ccc21)C(=O)N[C@@H](CCCNC(=N)N)C(=O)N[C@H](C(=O)N[C@@H](C)C(=O)N[C@@H](CCC(N)=O)C(=O)N[C@@H](CCC(=O)O)C(=O)N[C@@H](CC(C)C)C(=O)N[C@@H](CCCNC(=N)N)C(=O)N[C@@]1(C)CCCC=CCCC[C@@](C)(C(=O)N[C@@H](Cc2ccccc2)C(=O)N[C@@H](CC(N)=O)C(=O)N[C@@H](C)C(=O)N[C@@H](Cc2ccc(O)cc2)C(=O)N[C@@H](Cc2ccc(O)cc2)C(=O)N[C@@H](C)C(=O)N[C@@H](CCCNC(=N)N)C(=O)N[C@@H](CCCNC(=N)N)C(N)=O)NC(=O)[C@H](CC(=O)O)NC(=O)CNC(=O)[C@H]([C@@H](C)CC)NC1=O)[C@@H](C)CC` [W147R, IRIAQELRXIGDXFNAYYARR]: the “LDH release, membrane lytic activity” value in series [3] is “promote lysis”.
For “LTFZEYWANCbXSAA (LTF[R8]EYWAN[Cba][S5]SAA; staple 4-11) [ATSP-7041]”, the α-helicity in series [4] worked out at 70%. The “cellular penetrance (TIFI value)” value in series [5] was “effective cellular penetrance”. Moreover, in series [6], the “nonspecific membrane lytic properties (LDH release)” value is listed as “lacks nonspecific membrane lytic properties”.
In the case of IWIAQLLRXIGDXFNAYYARR, the IC50 in series [1] was > 1000 nM.
On to `CC[C@H](C)[C@H](NC(=O)CCNC(=S)Nc1ccc2c(c1)C(=O)OC21c2ccc(O)cc2Oc2cc(O)ccc21)C(=O)N[C@@H](Cc1c[nH]c2ccccc12)C(=O)N[C@H](C(=O)N[C@@H](C)C(=O)N[C@@H](CCC(N)=O)C(=O)N[C@@H](CCC(=O)O)C(=O)N[C@@H](CC(C)C)C(=O)N[C@@H](CCCNC(=N)N)C(=O)N[C@@]1(C)CCCC=CCCC[C@@](C)(C(=O)N[C@@H](Cc2ccccc2)C(=O)N[C@@H](CC(N)=O)C(=O)N[C@@H](C)C(=O)N[C@@H](Cc2ccc(O)cc2)C(=O)N[C@@H](Cc2ccc(O)cc2)C(=O)N[C@H](C(=O)N[C@@H](CCCNC(=N)N)C(=O)N[C@@H](CCCNC(=N)N)C(N)=O)[C@@H](C)O)NC(=O)[C@H](CC(=O)O)NC(=O)CNC(=O)[C@H]([C@@H](C)CC)NC1=O)[C@@H](C)CC` [A164T, IWIAQELRXIGDXFNAYYTRR], for which the “LDH release, membrane lytic activity” value in series [3] was “promote lysis”.
In turn, IWIAQELRXIGDXFNAIYARR registered a half-maximal inhibitory concentration (IC50) in series [1] of 59.4 nM.
Same read-out and setting: the same measure for IWIALELRXIGDXFNAYYARR: > 1000 nM.
With `CC[C@H](C)[C@H](NC(=O)CCNC(=S)Nc1ccc2c(c1)C(=O)OC21c2ccc(O)cc2Oc2cc(O)ccc21)C(=O)N[C@@H](Cc1c[nH]c2ccccc12)C(=O)N[C@H](C(=O)N[C@@H](C)C(=O)N[C@@H](CCC(N)=O)C(=O)N[C@@H](CCC(=O)O)C(=O)N[C@@H](CC(C)C)C(=O)N[C@@H](CCCNC(=N)N)C(=O)N[C@@]1(C)CCCC=CCCC[C@@](C)(C(=O)N[C@@H](Cc2ccccc2)C(=O)N[C@@H](CC(N)=O)C(=O)N[C@@H](CCC(=O)O)C(=O)N[C@@H](Cc2ccc(O)cc2)C(=O)N[C@@H](Cc2ccc(O)cc2)C(=O)N[C@@H](C)C(=O)N[C@@H](CCCNC(=N)N)C(=O)N[C@@H](CCCNC(=N)N)C(N)=O)NC(=O)[C@H](CC(=O)O)NC(=O)CNC(=O)[C@H]([C@@H](C)CC)NC1=O)[C@@H](C)CC` [A161E, IWIAQELRXIGDXFNEYYARR], the “total internalized FITC intensity (TIFI), cellular uptake” value in series [7] is “retention of high level TIFI”.
IWIAQELRXIGDXFNAYYIRR had an IC50 in series [1] of 45.7 nM.
